The record followed here is PMC4735555 (2016).

A word on the Kd: it is the constant that tells how readily two partners part at equilibrium.

The target in this experiment is 2N5.1 TCR. Put plainly: SPR; Mamu-B*098 loaded with C14nef5.

B1: β2m-linked Mamu-B*098 protein (single-chain, refolded without C14nef5, biotinylated) (other)
chain: IQRTPKIQVYSRHPPENGKPNFLNCYVSGFHPSDIEVDLLKNGEKMGKVEHSDLSFSKDWSFYLLYYTEFTPNEKDEYACRVNHVTLSGPRTVKWDRDMGGGGSGGSGSGGGSSGSHSMRYFSTTVSRPGRGEPRFIVVGYVDDTQFVRFDSDAASPKMEPRAPWMEQEGPEYWEEQTRRVKDAAQTFRVSLGNLRGYYNQSEAGSHTLQTMSGCDLGPDGRLLRGYYQQAYDGRDYIALNEDLRSWTAADEAAQNTQRKWEAAGVAEQWRAYLEGECLESLRRYLENGKETLQRAEPPKTHVTHHPVSDHEATLRCWALGFYPAEITLTWQRDGEDQTQDTELVETRPGGDGTFQKWGAVVVPSGEEQRYTCHVQHEGLPEPLTLRWEPLHHILDAQKMVWNHR
modifications: biotin (BirA) on the biotinylation sequence peptide
Molecule B1 displayed a Kd of 2500 nM.
